Measurements published in paper PMC10687025, “Endosomal Arl4A attenuates EGFR degradation by binding to the ESCRT-II component VPS36” (Nature Communications, 2023).

B1: His-tagged Arl4A T51N [not stated] / GST-VPS36 (201–386) [not stated] (parent complex)
chain 1: MGNGLSDQTSILSNLPSFQSFHIVILGLDCAGKTTVLYRLQFNEFVNTVPNKGFNTEKIKVTLGNSKTVTFHFWDVGGQEKLRPLWKSYTRCTDGIVFVVDSVDVERMEEAKTELHKITRISENQGVPVLIVANKQDLRNSLSLSEIEKLLAMGELSSSTPWHLQPTCAIIGDGLKEGLEKLHDMIIKRRKMLRQQKKKR
chain 2: KIKDKQGDITEDETIRFKSYLLSMGIANPVTRETYGSGTQYHMQLAKQLAGILQVPLEERGGIMSLTEVYCLVNRARGMELLSPEDLVNACKMLEALKLPLRLRVFDSGVMVIELQSHKEEEMVASALETVSEKGSLTSEEFAKLVGMSVLLAKERLLLAEKMGHLCRDDSVEGLRFYPNLFMTQS
B2: untagged Arl4A T51N (pSG5) [not stated] / VPS36-WT-Myc [not stated] (parent complex)
chain 1: B1 chain 1
chain 2: MDRFVWTSGLLEINETLVIQQRGVRIYDGEEKIKFDAGTLLLSTHRLIWRDQKNHECCMAILLSQIVFIEEQAAGIGKSAKIVVHLHPAPPNKEPGPFQSSKNSYIKLSFKEHGQIEFYRRLSEEMTQRRWENMPVSQSLQTNRGPQPGRIRAVGIVGIERKLEEKRKETDKNISEAFEDLSKLMIKAKEMVELSKSIANKIKDKQGDITEDETIRFKSYLLSMGIANPVTRETYGSGTQYHMQLAKQLAGILQVPLEERGGIMSLTEVYCLVNRARGMELLSPEDLVNACKMLEALKLPLRLRVFDSGVMVIELQSHKEEEMVASALETVSEKGSLTSEEFAKLVGMSVLLAKERLLLAEKMGHLCRDDSVEGLRFYPNLFMTQS

Variants of: B1
Assay: GST pull-down with densitometric quantification; parent: 1; read off a plot

ratio to parent | Variant
~0.09 | chain 2 KIKDKQGDITEDETIRFKSYLLSMGIANPVTRETYGSGTQYHMQLAKQLAGILQVPLEERGGIMSLTEVYCLVNRARGMELLSPEDLVNACKMLEALKLPLRLRVFDSGVMVIELQSHKEEEMVASALETVSEKGSLTSEEFAKLVGMSVLAAAAALLLAEKMGHLCRDDSVEGLRFYPNLFMTQS
~0.31 | chain 2 KIKDKQGDITEDETIRFKSYLLSMGIANPVTRETYGSGTQYHMQLAKQLAGILQVPLEERGGIMSLTEVYCLVNRARGMELLSPEDLVNACKMLEALKLPLRLRVFDSGVMVIELQSHKEEEMVASALETVSEKGSLTSEEAAAAAGMSVLLAKERLLLAEKMGHLCRDDSVEGLRFYPNLFMTQS
~0.22 | chain 2 KIKDKQGDITEDETIRFKSYLLSMGIANPVTRETYGSGTQYHMQLAKQLAGILQVPLEERGGIMSLTEVYCLVNRARGMELLSPEDLVNACKMLEALKLPLRLRVFDSGVMVIELQSHKEEEMVASALETVSEKGSAAAAAFAKLVGMSVLLAKERLLLAEKMGHLCRDDSVEGLRFYPNLFMTQS

Variants of: B2
Assay: co-immunoprecipitation (Myc-Trap) with densitometric quantification; HeLa cell lysates; parent: 1; read off a plot

ratio to parent | Variant
~0.54 | chain 2 MDRFVWTSGLLEINETLVIQQRGVRIYDGEEKIKFDAGTLLLSTHRLIWRDQKNHECCMAILLSQIVFIEEQAAGIGKSAKIVVHLHPAPPNKEPGPFQSSKNSYIKLSFKEHGQIEFYRRLSEEMTQRRWENMPVSQSLQTNRGPQPGRIRAVGIVGIERKLEEKRKETDKNISEAFEDLSKLMIKAKEMVELSKSIANKIKDKQGDITEDETIRFKSYLLSMGIANPVTRETYGSGTQYHMQLAKQLAGILQVPLEERGGIMSLTEVYCLVNRARGMELLSPEDLVNACKMLEALKLPLRLRVFDSGVMVIELQSHKEEEMVASALETVSEKGSLTSEEFAKLVGMSVLAAAAALLLAEKMGHLCRDDSVEGLRFYPNLFMTQS [chain 2 L352A, chain 2 K354A, chain 2 E355A, chain 2 R356A]
